Source: patent US20230333112 (published 2023)

Target: T1, human NKp30 (BKM0179) (human, UniProt O14931)
T1 chain: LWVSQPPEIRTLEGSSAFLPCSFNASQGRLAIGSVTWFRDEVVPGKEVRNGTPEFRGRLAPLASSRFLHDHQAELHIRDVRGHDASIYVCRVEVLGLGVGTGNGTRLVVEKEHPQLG
Test: SPR

Kd: 1.48 nM
B1: BJM1078 (BJM0407 parental) (antibody, V domains shown)
VH: EIQLLESGGGLVQPGGSLRLSCAVSGFSITTTGYHWNWVRQAPGKGLEWVGYIYSSGSTSYNPSLKSRFTISRDTSKNTFYLQMNSLRAEDTAVYYCARGDWHYFDYWGQGTMVTVSS
VL: QSVTTQPPSVSGAPGQRVTISCSGEKLSDKYVHWYQQLPGTAPKMLIYENDRRPSGVPDRFSGSNSGNSASLAITGLQAEDEADYFCQFWDSTNSAVFGGGTQLTVL
